Data published in paper PMC6511850 (Nucleic Acids Research, 2019).

Biological target: the molecule itself
Assay: SEC

B1: Bacillus subtilis m1A22 tRNA methyltransferase TrmK (wild type) (enzyme, UniProt P54471 1-238, looked up)
chain: MNELKLSKRLQTVAEYIPNGAVMADIGSDHAYLPCYAVLNHKASGAIAGEITDGPFLSAKRQVEKSGLNSHISVRQGDGLEVIKKGEADAITIAGMGGALIAHILEAGKDKLTGKERLILQPNIHAVHIREWLYKERYALIDEVILEEDGKCYEVLVAEAGDRDAAYDGISLSAGMLVGPFLAKEKNAVFLKKWTQELQHTQSIYEQISQAADTEQNKQKLKELADRMELLKEVIDHG
  binding result: binds
